{"source": "paper PMC5614712", "about": "(Biochemistry and Biophysics Reports, 2017)", "proteins": {"B1": {"name": "Y93H ttCK (uridine-cytidine kinase TTHA0578 of Thermus thermophilus HB8, Tyr93 replaced by His) (enzyme)", "chain": "MSAPKPFVIGIAGGTASGKTTLAQALARTLGERVALLPMDHYYKDLGHLPLEERLRVNYDHPDAFDLALYLEHAQALLRGLPVEMPVYDFRAHTRSPRRTPVRPAPVVILEGILVLYPKELRDLMDLKVFVDADADERFIRRLKRDVLERGRSLEGVVAQYLEQVKPMHLHFVEPTKRYADVIVPRGGQNPVALEMLAAKALARLARMGAA"}}, "molecular_target": "the molecule itself", "experiment": "crystal structure", "data": [{"protein": "B1", "values": [{"measurement": "stoichiometry N", "value": 4}]}]}
